Numbering of substitutions follows the chain as printed.
T1: human TREM2 Fc fusion (entire TREM2 ECD; only one Fc arm fused to TREM2) (human, UniProt Q9NZC2 19-174)
T1 construct: also called huTREM2-Fc; recombinant hTREM2
T1 sequence: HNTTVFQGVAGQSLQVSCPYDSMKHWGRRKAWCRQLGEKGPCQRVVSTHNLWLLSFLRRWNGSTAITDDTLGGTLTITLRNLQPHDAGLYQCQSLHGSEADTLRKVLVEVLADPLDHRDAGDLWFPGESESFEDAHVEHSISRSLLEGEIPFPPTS

T2: human TREM2 expressed on cells (human, UniProt Q9NZC2 19-230)
T2 construct: BW5147.G.1.4 cells stably expressing human TREM2 together with Dap12, or endogenous TREM2 of primary human myeloid cells; also called huT2 BW; hTREM2 expressing cell line
T2 sequence: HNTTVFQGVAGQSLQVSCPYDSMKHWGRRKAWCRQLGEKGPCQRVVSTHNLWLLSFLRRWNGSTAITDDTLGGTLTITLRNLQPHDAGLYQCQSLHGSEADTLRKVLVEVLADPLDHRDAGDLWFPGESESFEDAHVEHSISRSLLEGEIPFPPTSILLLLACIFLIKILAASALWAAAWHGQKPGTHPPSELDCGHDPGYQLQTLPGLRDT

T3: cynomolgus monkey TREM2 Fc fusion (entire TREM2 ECD; only one Fc arm fused to TREM2) (cynomolgus monkey, UniProt Q9NZC2 19-174 (human entry))
T3 construct: also called cyno TREM2-Fc
T3 chain: T1 sequence with A10E, W60R, L89F, F125V

B1: AL2p-23 (antibody, V domains shown)
VH: QVQLVQSGAEVKKPGSSVKVSCKASGYAFSSHWMNWVRQAPGQGLEWMGRIYPGDGQTNYAQKRQGRVTITADESTSTAYMELSSLRSEDTAVYYCARLLRNQPGESYAMDYWGQGTLVTVSS
VL: GVVMTQTPLSLSVTPGQPASISCRTSQSLVHSNGYTYLHWYLQKPGQSPQLLIYKVSNRVSGVPDRFSGSGSGTDFTLKISRVEAEDVGVYYCSQSTRVPYTFGQGTKLEIK
notes: Fab and IgG formats under one id
B2: AL2p-h90 (antibody, human IgG1, V domains shown)
VH: B1 VH with S16A, H32S, G44R, M48I, Q57D, R64F, E74T, T76A
VL: DVQMTQSPSSLSASVGDRVTITCRSSQSLVHSNGYTYLHWYQQKPGKSPKLLIYKVSNRFSGVPSRFSGSGSGTDFTLTISSLQPEDFATYYCSQSTRVPYTFGGGTKVEIK
notes: humanized, human IgG1; Fab and IgG formats under one id
B3: AL2p-h24 (antibody, human IgG1, V domains shown)
VH: QVQLVQSGAEVVKPGASLKISCKASGYAFSSSWMNWVRQAPGQGLEWIGRIYPGDGDTNYNQKFQGRATLTADTSTSTAYMELSSLRSEDTAVYFCARLLRNQPGESYAMDYWGQGALVTVSS
VL: B1 VL with G1D, T25S, V60F, V88L, Y92F
notes: as for B2
B4: AL2p-h32 (antibody, human IgG1, V domains shown)
VH: B3 VH with V12K, A16S, L18V, I20V, Q62G, K63E, Q65R, G66V, S77T, A117T
VL: B1 VL with G1D, T25S, V60F, V88L, Y92F
notes: as for B2
B5: AL2p-h25 (antibody, human IgG1, V domains shown)
VH: B3 VH with V12K, Q62G, K63E, Q65R, G66V, F95Y
VL: B1 VL with G1D, T25S, V60F, V88L, Y92F
notes: as for B2
B6: AL2p-h27 (antibody, human IgG1, V domains shown)
VH: B3 VH with V12K, L18V, I20V, Q62G, K63E, Q65R, G66V, A117T
VL: B1 VL with G1D, T25S, V60F, V88L, Y92F
notes: as for B2
B7: AL2p-h43 (antibody, human IgG1, V domains shown)
VH: B3 VH with V12K, I20V, G44R, Q62G, K63E, Q65R, G66V, T76A, A117T
VL: B1 VL with G1D, T25S, V60F
notes: as for B2
B8: AL2p-h44 (antibody, human IgG1, V domains shown)
VH: B3 VH with V12K, I20V, G44R, N61A, T76A, A117T
VL: B1 VL with G1D, T25S, V60F
notes: as for B2
B9: AL2p-h47 (antibody, human IgG1, V domains shown)
VH: QVQLVQSGAEVKKPGASVKVSCKASGYAFSSSWMNWVRQAPGQGLEWMGRIYPGDGDTNYNGEFRVRVTMTRDTSTSTVYMELSSLRSEDTAVYYCARLLRNQPGESYAMDYWGQGTLVTVSS
VL: B1 VL with G1D, T25S, V60F
notes: as for B2
B10: AL2p-h26 (antibody, human IgG1, V domains shown)
VH: B1 VH with S16A, H32S, G44R, M48I, Q57D, R64F, E74T, T76A
VL: B1 VL with G1D, T25S, V60F, V88L, Y92F
notes: as for B2
B11: AL2p-h76 (antibody, human IgG1, V domains shown)
VH: B3 VH with V12K, L18V, I20V, G44R, N61A, L70I, T76A, A117T
VL: DVVMTQSPDSLAVSLGERATINCRSSQSLVHSNGYTYLHWYQQKPGQSPKLLIYKVSNRFSGVPDRFSGSGSGTDFTLTISSLQAEDVAVYYCSQSTRVPYTFGGGTKVEIK
notes: as for B2
B12: AL2p-h42 (antibody, human IgG1, V domains shown)
VH: B1 VH with S16A, H32S, G44R, Q57D, R64F, A72R, E74T, T76A
VL: B1 VL with G1D, T25S, V60F
notes: as for B2
B13: AL2p-h34 (antibody, human IgG1, V domains shown)
VH: B1 VH with H32S, M48I, Q57D, R64F, V68A, E74T, Y95F
VL: B1 VL with G1D, T25S, V60F, V88L, Y92F
notes: as for B2
B14: AL2p-h30 (antibody, human IgG1, V domains shown)
VH: B1 VH with S16A, H32S, Q57D, R64F, I70M, E74T
VL: B1 VL with G1D, T25S, V60F, V88L, Y92F
notes: as for B2
B15: AL2p-h35 (antibody, human IgG1, V domains shown)
VH: B1 VH with H32S, Q57D, R64F, V68A, E74T
VL: B1 VL with G1D, T25S, V60F, V88L, Y92F
notes: as for B2
B16: AL2p-h33 (antibody, human IgG1, V domains shown)
VH: B3 VH with V12K, A16S, L18V, I20V, N61A, S77T, A117T
VL: B1 VL with G1D, T25S, V60F, V88L, Y92F
notes: as for B2
B17: AL2p-h59 (antibody, human IgG1, V domains shown)
VH: B1 VH with S16A, H32S, G44R, Q57D, R64F, A72R, E74T, T76A
VL: B1 VL with G1D, V2I, T7S, S12P, Q17E, T25S, V60F, Q105G, L109V
notes: as for B2
B18: AL2p-h23 (antibody, human IgG1, V domains shown)
VH: B3 VH with V12K, N61A, F95Y
VL: B1 VL with G1D, T25S, V60F, V88L, Y92F
notes: as for B2

Target: T1, human TREM2 Fc fusion (entire TREM2 …)
Test: BLI, IgG, avid
Protocol: (§1) Briefly, IgGs were loaded on-line onto AHQ sensors, Sensors were equilibrated off-line in assay buffer for 30 minutes and then monitored on-line for 60 seconds for baseline establishment. For avid binding measurement, sensors with loaded IgGs were exposed to 100 nM antigen (human or cynomolgus monkey TREM2 Fe fusion using the entire TREM2 ECD; only one Fc arm was fused to TREM2) for 3 minutes, afterwards they were transferred to assay buffer for 3 minutes for off-rate measurement. Monovalent binding measurements were obtained by loading human TREM2 Fc fusion antigens to AHQ sensor and followed by exposure to 100 nM TREM2 antibody Fab. Kinetics data were fit using a 1:1 binding model in the data analysis software provided by ForteBio. Assay was run at room temperature (25° C.).

Row | Kd | Binder
1 | 0.334 nM | B1

Target: T2, human TREM2 expressed on cells
Test: FACS, hTREM2 BW cells
How it was run: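 Cells were BW5147.G.1.4 stably expressing human TREM2 with Dap12, or human monocyte-derived dendritic cells differentiated 6 days with GM-CSF and IL-4. Antibodies bound 1 h on ice in PBS+2% FBS, then PE anti-human secondary 30 min on ice; flow cytometry read-out as mean fluorescence intensity.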

Row | Kd | Binder
2 | 1.2 nM | B1

Target: T1, human TREM2 Fc fusion (entire TREM2 …)
Test: BLI, Fab, monovalent
Protocol: as §1, with “Briefly, IgG's” for “Briefly, IgGs”, “AHQ sensors.” for “AHQ sensors,”, “(human” for “(human or cynomolgus monkey”, “TREM2 Fc” for “TREM2 Fe”, “TREM2 Fe” for “TREM2 Fc”

Row | Kd | Binder
3 | 61.2 nM | B2
4 | 1150 nM | B3
5 | 144 nM | B4
6 | 153 nM | B5
7 | 120 nM | B6
8 | 134 nM | B7
9 | 180 nM | B8
10 | 161 nM | B9
11 | 95.3 nM | B10
12 | 83 nM | B11
13 | 141 nM | B12
14 | 142 nM | B13
15 | 181 nM | B14
16 | 127 nM | B15
17 | 225 nM | B16
18 | 130 nM | B17
19 | 334 nM | B18

Target: T1, human TREM2 Fc fusion (entire TREM2 …)
Test: BLI, Fab, monovalent
Remark: another data set of the same source

Row | Kd | Binder
20 | 4.35 nM | B1

Target: T3, cynomolgus monkey TREM2 Fc fusion …
Test: BLI, Fab, monovalent

Row | Kd | Binder
21 | 4.16 nM | B1

Target: T2, human TREM2 expressed on cells
Test: FACS, hTREM2 BW cells
Remark: another data set of the same source
Protocol: To examine cell binding of anti-TREM2 antibodies, recombinant, human TREM2-expressing BW5147.G.1.4 cells (ATCC® TIB48™) were established by stably expressing either mouse TREM2 or human TREM2 together with Dap12 using viral infection. Cells were harvested by scraping, washed in PBS, counted and plated on 96-well U bottom plates at 1)(10⁵ cells/well. The plates were spun at 1,400 rpm for 3 minutes and primary anti-TREM2 or control antibodies were added in FACS buffer (PBS H2% FBS) and incubated on ice for one hour. Cells were subsequently centrifuged as before and washed thrice with FACS buffer. Cells were then incubated with anti-human PE conjugated secondary antibody (BD Biosciences) in FACS buffer for 30 minutes on ice. Cells were again washed thrice with FACS buffer and analyzed on a BD FACS Canto. Binding was measured as mean fluorescence intensity in the APC channel.

Row | cell binding (FOB) | Binder
22 | 126 FOB | B2
23 | 69 FOB | B3
24 | 81 FOB | B4
25 | 90 FOB | B5
26 | 78 FOB | B6
27 | 91 FOB | B7
28 | 80 FOB | B8
29 | 93 FOB | B9
30 | 78 FOB | B10
31 | 86 FOB | B11
32 | 79 FOB | B12
33 | 84 FOB | B13
34 | 88 FOB | B14
35 | 69 FOB | B15
36 | 74 FOB | B16
37 | 69 FOB | B17
38 | 76 FOB | B18

Target: T2, human TREM2 expressed on cells
Test: cell-based or functional assay

Row | Binder | Survival huDCs plate bound IgG, AUC
39 | B1 | 1.11e+06 AUC

Target: T4, human TREM2/DAP12 fusion protein (human, UniProt O43914 41-113, limits assumed)
T4 sequence (O43914 other isoform, or with tags, fused parts or gaps limits assumed): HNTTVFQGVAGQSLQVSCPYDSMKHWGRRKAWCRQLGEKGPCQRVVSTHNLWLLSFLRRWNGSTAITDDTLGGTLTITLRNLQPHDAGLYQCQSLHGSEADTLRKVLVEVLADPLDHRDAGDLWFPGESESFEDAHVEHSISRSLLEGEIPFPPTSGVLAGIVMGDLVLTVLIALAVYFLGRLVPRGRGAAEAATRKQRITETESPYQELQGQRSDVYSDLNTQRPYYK
Test: cell-based or functional assay

Row | Luciferase activation plate bound 33 nM IgG, FOC | Luciferase activation soluble 10 nM IgG, FOC | Binder
40 | 29.8 FOC | 2.53 FOC | B1

Target: T4, human TREM2/DAP12 fusion protein
Test: cell-based or functional assay
Remark: another data set of the same source

Row | Soluble luciferase activation at 10 µg/ml Fold over control | Binder
41 | 4.35 fold over control | B2
42 | 4.36 fold over control | B3
43 | 5.6 fold over control | B4
44 | 7.45 fold over control | B5
45 | 7.23 fold over control | B6
46 | 8.65 fold over control | B7
47 | 7.29 fold over control | B8
48 | 9.28 fold over control | B9
49 | 7.25 fold over control | B10
50 | 6.57 fold over control | B11
51 | 9.29 fold over control | B12
52 | 6.92 fold over control | B13
53 | 6.01 fold over control | B14
54 | 6.81 fold over control | B15
55 | 6.21 fold over control | B16
56 | 7.06 fold over control | B17
57 | 5.38 fold over control | B18

From patent US20200317776A1 (published 2020)
